From US7582299B2, “Cripto-specific antibodies” (Biogen Idec MA Inc., priority 2001, dated 2009)

Columns and labels:
T-47D-CR cells = assay: Proliferation of T-47D-CR cells with Activin, with or without anti-Cripto mab; format: cell-based, human; conditions: low serum; FIG. 6
Method: (§1) T47D cells, maintained in RPMI/10% FCS/10 μg/ml insulin, at passage #2 from the ATCC were transfected with an expression plasmid for the Ecotropic Receptor (EcoR; B. Elenbaas) and selected in media containing 100 μg/ml hygromycin. Colonies of T-47D-EcoR that permitted infection of pBABE-GFP murine leukemia virus (MLV) were grown out, infected with pBABE-hCr-PURO-MLV and selected in puromycin media. This oligoclonal line (T-47D-hCr) was analyzed by FACS for hCr (human Cripto) expression with specific anti-Cripto antibodies. Approximately 4000 cells/well of T-47D-EcoR or T-47D-hCr were plated in a 96 well plate in media containing 2% serum with/without 25 ng/ml Activin B (R&D) or […] plus 0.1-50 μg/ml A8G3.5. Media with factors was replaced daily for 7-8 days. The plate was harvested by adding 20 μl/well CellTiter AQueous One solution (Promega), incubating 2 hours 37° C., and reading at 490 nm.
(§2) We grew T-47D and T-47D-EcoR cells in low serum conditions, with or without Activin A or B and assayed for proliferating cells using an MTT colorimetric assay.
We then tested whether antibodies of the invention can inhibit the Cripto-Activin B interaction. We treated T-47D-CR cells with Activin B in the presence of various antibodies of the invention. We observed that the growth suppressive activity of Activin B was restored in the presence of 10 or 20 μg/ml mab A8G3.5 (FIG. 7).

T-47D cells = assay: Proliferation of T-47D cells with Activin A or B (MTT); format: cell-based, human; conditions: low serum; compared to untreated cells; FIG. 6
Method: as §1, §2

CR-Fc [1] = molecular target: T1, CR-Fc (Homo sapiens, UniProt P13385); assay: ELISA of CR-Fc on ligand-coated plates; format: binding; conditions: for inhibition of CR-Fc binding to Activin B coated plate: CR-Fc pre-incubated with ligand in solution, FIG. 9; for binding of CR-Fc to ligand-coated wells: ELISA plates coated with purified ligand, FIG. 8
T1 sequence (P13385 31-150): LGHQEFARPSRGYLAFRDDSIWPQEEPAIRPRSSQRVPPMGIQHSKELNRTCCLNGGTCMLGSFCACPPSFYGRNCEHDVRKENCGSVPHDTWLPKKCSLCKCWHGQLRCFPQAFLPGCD
Method: In still other experiments, we coated 96 well plates by adding to each well 100 μl of 3-5 μg/ml Activin B or another ligand in 50 mM carbonate (pH 9.5). We incubated the plates for 1 hr. at room temperature and blocked overnight with TBS/1% BSA overnight at 4° C. We incubated the plate with CR-Fc or ALK4-Fc in blocking buffer at room temperature, washed in TBST and probed with anti-human-AP (Jackson). We washed the plate in TBST, once in 10× substrate buffer (200 mM Tris-HCl, 10 mM MgCl2, pH 9.8) and added CSPD and Sapphire (Applied Biosystems).
We discovered that Cripto binds directly to Activin B. We coated ELISA plates with purified Activin B, Activin A, TGFβ1, GDNF or BMP2 and incubated with CR-Fc. We then added anti-Fc antibody conjugated to alkaline phosphatase and monitored binding by adding an alkaline phosphatase substrate and developing.

CR-Fc [2] = molecular target: T1, CR-Fc; assay: Biacore, CR-Fc immobilized on chip; format: binding; conditions: for binding to CR-Fc immobilized on a Biacore chip: FIG. 10
Description: We also analyzed the Cripto-Activin B interaction using Biacore. […] We also observed that Activin A binding to CR-Fc was negligible.

| inhibition of CR-Fc binding to Activin B coated plate (CR-Fc [1]) | binding of CR-Fc to ligand-coated wells (CR-Fc [1]) | on rate of binding to Cripto (CR-Fc [2]; Biacore) | Substance | response of T-47D-CR cell proliferation to Activin (T-47D-CR cells) | inhibition of proliferation of T-47D cells (T-47D cells) | binding to CR-Fc immobilized on a Biacore chip (CR-Fc [2]) |
| --- | --- | --- | --- | --- | --- | --- |
| only Activin B inhibits binding | bound to wells containing Activin B | fast on rate | Activin B: purified ligand protein (R&D) that binds Cripto and inhibits tumor cell proliferation | not responsive to Activin B | approximately 40% | directly binds CR-Fc immobilized on a Biacore chip with a high intensity |
| only Activin B inhibits binding | not to Activin A | – | Activin A: purified ligand protein tested on T-47D cells and for binding to CR-Fc | inhibited by Activin A | approximately 40% | negligible |
